Reference: a protein production outcome set (Wang et al. 2014)

Experiment: label from the status in PepcDB records

| Sequence | protein production |
| --- | --- |
| MSNYNVSLVGPAPWGFRLQGGKDFNMPLTISSLKDGGKASQAHVRIGDVVLSIDGISAQGMTHLEAQNKIKACTGSLNMTLQRASAAAKSEPVAVQKGEPKEVVKPVPITSPAVSKVTSTTNMAYNKVPRPFGSVSSPKVTSIPSPSSAFTPAHAATSSHASPPPVAAVTPPPLSASGLHASANPSAAQCSSPPNTGKPAVHVPRQPTVTSVCSESAQELAEGQRRGSQGDIKQQNGPPRKHIVERNTEFYHIPTHSDASKKRLIEDTEDWRPRTGTTQSRSFRILAQITGTEHLKESENDNAKKANSTPEPSQQSASPLSAAESLESPGSNRPVVAGLRSAAAFKPVGSTSVKSPSWQRPNQAAPSTGRISNSASSSGTGAPMKPAVGPPQPSDQDTLVQRAEHIPAGKRTPMCAHCNQAIRGPFLVALGKSWHPEEFNCAHCKNTMAYIGFVEEKGALYCELCYEKFFAPECGRCQRKILGEVINALKQTWHVSCFVCVACGKPIRNNVFHLEDGEPYCETDYYALFGTICRGCEFPIEAGDMFLEALGSTWHDTCFVCSVCCESLEGQTFFSKKDKPLCKKHAHSVNF | failed |
| MRRRVAAALVAAVLAAPALAQQPEPFEPEGYRTDNYRAPVPATLAGARVLTTAEAEAIWRDKSGAFIDVMPRAPKPKNLPEGTVWRDAPRRNIPGSLWLPDTGYGNLPPAMDDYLQRGLAQASRGDKAALLVIYCLADCWMSWNAARRALAYGYSNIAWYPDGSDGWERAALPTDEGQPEPRPDQ | failed |
| METKQDNLIYVWDAYCGWCYGFSESIKGFYKNHTEVPLTVLCGGLFLDNLPMKNFSYIEEGNKRINQLTGAEFGPSYQKLVEEGTFKMNSKDAAIGFSALRSLAPDRLLEFTSAMQKAFYYEGQSLSDPETYRKIAIEHGLDPEQVLERLNAQETIIDVQNDFNKVRQLGVNSYPSLLLQKDNQIIPIGGGVMTPDKIEARFKNLY | failed |
| PELPTCLTRRLADYATEKPLVRLFFQGEEATVPFISQTSRELNMDINILLANIDRFDGVTCGVLVVELTANPLLLEAFINRCEQAGITVEVLGYVLPDGL | not failed |
| MAARDPEATKARIFEAAVAEFARHGIAGARIDRIAAEARANKQLIYAYYGNKGELFASVLEKKMLDLAISVPVDPDDIEGWIDRLLDYHAAHPELLRLLFWEGMEYGTAELPHEAERQEHYARKVAAVRDGQERGVITDAIPAPDLLFLLVAMANWAVVVPQMKRILVGGGDAGTDGLRDSIKKAARRIVDR | not failed |
| MPREFKSFGSTEKSLLSKGHGEPSYSEIYAEPENFLEIEVHNPKTHIPNGMDSKGMFTDYEIICRTNLPSFHKRVSKVRRRYSDFEFFRKCLIKEISMLNHPKVMVPHLPGKILLSNRFSNEVIEERRQGLNTWMQSVAGHPLLQSGSKVLVRFIEAEKFVG | not failed |
| MLDAKTSTLLWAAETFTLAVLLGTLWLHRPSRRHNLYFAAGFLATGFGTVMVALRGDISSFLSIQVGNTLALSAFGFWLAGLLSLEQRKLGGWIAIPALLWIAGMFVPSVPEDMVARILLYHASAATGYFMLAGVLLGSRARASRSRKVLATILILQAFAGAIVASIVIPANAAVPNAIPMTSALSISGMLGFTAIIMISAKIIMEDTEIRLHRLAMTDHLTGVLNRRGLLEEFEHIKKRSHGSDRYVALVLFDIDHFKKINDRYGHQSGDAVLVHFCNIAQRVIGERGLFVRMGGEEFALVAEVESPSSTVTLAEAIRSNLRLSKITARNEAIKVTTSVGISEAMIKDADLSVMMTEADRALYAAKKAGRNRTVIHVNSANVVVPAPDRDENPMDNNADRQVAALNRISAIASR | failed |
| MNTDNPKSHISRIAYPAIIVFLILTLLGSLVERFHPFTSWLTPPVALLMGLAYALIFGSTHRRANKLGSKVLLQYSVVGLGFGMNLGESLASGRDGMMFTIISVFGTLLLGWFIGRKILQMNRNTSALISAGTAICGGSAIAAVGPILKAEEHEMSVALGTVFLLNAVALFIFPSIGHWLALDQQQFGTWAAIAIHDTSSVVGAGSAYGEEALRVATTIKLTRALWIVPLTLVFSFVYKTKGAKRFPVPLFILFFIGAIILNTYLLEAYFPEVGRFVASLARKGLTLSLFFIGASLTKEVIASVGVRALLQGLFLWILISVGSLAFILLI | failed |
| MGSPNINGNTAKLVNAILDGAAEKRAEKVIYNLASLNIKGCDACFRCQKSGCCAIDDDMQELYHEIQAADTIVLGSPVYMWQMTAQTKLLIDRLTAFLKPDFSSRLDNKKLILVFSQGSPDRDAFKPYFEYTAGLLYYLGFDVLETVIAAGTDNLEVSFRPKLLENARELGRLVSTSPLTGPEFKKDEPSLTPLL | failed |
| MMTKYGVVGTGYFGAELARFMSKVEGAKITAIYDPVNAAPIAKELNCVATATMEALCSHPDVDCVIIASPNYLHKAPVIAAAKAGKHVFCEKPIALNYQDCKDMVDACKEAGVTFMAGHVMNFFHGVRHAKALIKAGEIGEVTQVHTKRNGFEDVQDEISWKKIRAKSGGHLYHHIHELDCTLFIMDETPSLVSMAAGNVAHKGEKFGDEDDVVLITLEFESGRFATLQWGSSFHYPEHYVLIEGTTGAILIDMQNTAGYLIKAGKKTHFLVHESQAEDDDRRNGNISSEMDGAIAYGKPGKRTPMWLSSIMKLEMQYLHDVINGLEPGEEFAKLLTGEAATNAIATADAATLSSNEGRKVKLTEILGLEHHHHHH | not failed |
| MGKSDFIKVNVSNSHNDAVAFEVKLAKDLTVAQLKTKLEILTGGCAGTMKVQVFKGDTCVSTMDNNDAQLGYYANSDGLRLHVVDS | not failed |
| PGFIDMHAHSELRLFENPGAREKLTQGITTEVLGQDGVSVAPVPPNLTDEWAERVKSLDGTLGETWPWHTVSGYLEALESVEPAVNCAYYAPHGNIRSMLAGFEDRPLSGEHVVAAGPVTGQRLDRPKSDHDTAPGELDAIRQELEVALEEGAFGMSKGMIYPPSSYARDDELVALADTLAKRDSFMISHVWNETDRVVESIDRYLDICRRGGCHAHVSHLKVGGQQNWGDSEAVLDLFDDAVDRGQRVTFDQYPYTAGSTMLTALLPPWARQGDSEAIRHRLNSAAVRDRIAADISQPGDWENLAYAAGSWDNILITRTGSGRYQGDTIADIAAEMDREPVDAMCELLVAEELDVTMADFVMAETDIERFLADDRGTFCTDGIFGGKPHPRAIGAFSRILERYVRERNVLSPELLAYKAAGNPADILG | failed |
| MTSNGQQGKPNLPEKDNLPRELGTQRINSPIARMGMFGAKTTGDTSGYGRLRVYRHVPAAAQRPYSDPSDPRTAYFDEVADALERSLKEIGTPYDTAISRVVVDRGEITFHVQREHLLDVATRLRDDPALRFELCLGVTGVHYPEDEGNELHAVYALRSITHNYEIRLEVSCPDSDPHIPSIVSVYPTNDWHEREAWDFFGIIFDGHPALTR | not failed |
| MSFESNQLMPIAALRGGPGTPAADVLTAFALRRKAEGIDVVGVIVPPEDAGSGHQGHGHGEGHGGGHEGCECRSELIDIATGDRYAMHQDLGSGSQACNLNSSSLALAAGAVERAVARKPALVVLSRFGGQEAVRGGLMSAFQAAIAAGVPVACVVTPKAEDVWNDFAQGLSVSLPPEADALEAWWRDHARGRNAALEHHHHHH | failed |
| MREESIGRIAKDFLGHEGFQLTEWGGGNLNYLYRVDSTKESYILKYAPPYIRCLGEGYPLSSERLRYEILGLKAANETIPEFAPKLFYVAKEGVVMEYLEGFKLLRQAFIQGEKIPHLAEHLAEMLARFLVKNSFWALNEGERKKLLEQSENSLMRRLSEDYIFTFPFMEHPTNQKNPTSAPSVREIHQDKEWLGAILWLKSRFSTAKEGLLHGDLHTGSLMIKGEQIKMIDFEFSFVGPLSFDLGAILANWLIAYRTHKERGEVGGYSQWLREEMEEFIERFKEQFEFWAGEHGAPQIGIKGYLEALLIEAWGMAGVKIARRILGAAGVEDITSLESPLKEEVERRLLVLSREMTLRAALGIIPIQKGGREAYSWLF | failed |
| MFYTIEELVQQADRDYQGNIAELMIATETELSGRDRSEILELMTRNLEVMKDSVQTGLSPEKSPTGLTGGDAAKLDAYIKRGKTLADSAVLGAARNAMAVNESNAKMGLVCATPTAGSAGCLPAVLTVAIEKLGLNESQQLDFLFTAGAFGLVIANKASISGAEGGCQAEVGSASAMAAAAITMAAGGTPFQASQAICFVLKNMLGLICDPVAGLVEVPCVKRNAMGASFALVAADMALAGITSAIPVDQVVDAMYQVGSAMPTAFRETAEGGLAATPKGKALAKEIFG | not failed |
| MPEQTYMYAYVTLPHHDQRERYTQKCYRDGRRIVLASYDLMGSERFSFKEKLRKSMKGMNESAERWVSEVRQGENLNSIDNYYRLYKGKI | failed |
| MGGGPALNRDSSRHARPFISSPVKTLAIIPAFNEAQAIGPVLGDLPDGWVDEVVVVNNASTDATKANARAAGATVVDEPQQGYGAACLRGIAYAETRQPDVVVFLDGDYSDHPEELPRLVEPIAADEADFVVGSRIRGDAEPGALLPQAQVGNRFACSLMARLWGADYTDLGPFRAIRFRDLLALDMQDETFGWTIEMQIRALEAGLRVEEVPVSYRRGIGPSKITGTLSGTVKASAKILWTIGRMAATTHRRAPRLRERVDRARTDAPTPNPGGLEHHHHHH | failed |
| MSNSQWVPVSLNEYLAHLPMSDEQRAELASCTTFAELHERLSAQPVTDPAEAAQASVGRRLTLSADDLEDAEMLGVDASGRLCLKATPPIRRTKVVPEPWRTNILVRGWRRLTGKSNPPKPDHSDLPRDLPKSRWRTVGSIRRYILLILMLGQTIVAGSYMKGILPYQGWSLVSLDEITRQTFVQTALQVLPYALQTSILLLFGILFCWVSAGFWTALMGFLELLTGRDKYRISGASAGNEPIEAGARTALVMPICNEDVPRVFAGLRATFESVAATGNLDRFDFFVLSDTNETDIAVAEQQAWLDVCRETKGFGSIFYRRRRRRVKRKSGNLDDFCRRWGGEYRYMVVLDADSVMSGECLTSLVRLMEATPDAGIIQTAPRASGMDTLYARMQQFATRVYGPLFTAGLHFWQLGESHYWGHNAIIRMKPFIEHCALAPLPGKGAFAGAILSHDFVEAALMRRAGWGVWIAYDLPGSYEELPPNLLDELKRDRRWCHGNLMNFRLFLVKGMHPVHRAVFLTGVMSYLSAPLWFFFLVLSTALLAVNTLMEPTYFLEPRQLYPLWPQWHPERAVALFSTTIVLLFLPKLLSVILIWAKGAKGFGGKFKVTVSMLLEMLFSVLLAPVRMLFHTRFVLAAFLGWAATWNSPQRDDDSTPWLEAVKRHGPQTLLGACWALLVFWLNPSFLWWLAPIVVSLMLSIPVSVISSRTNLGLKARDEKFFLIPEEFEPPQELVSTDQYTHENRWHALKQGFIRAVVDPRQNALACALATSRHRQAQPIEVVRMERVDHALKVGPAKLDNQHRLMLLSDPVALGRLHERVWSEGHEEWLAAWRASIEADPHAPLLPLQPVVKAPEPVLV | failed |
| MAGVITGFAIILSVIGVGFLLAKLGVINDDKQRLVLNRIAFYAATPALLFNVVARSDPSALISPVIVVTFVATIVTAAVYCVISAIFFKKDIATTATGAAASAYVNSNNIGLPVSIYVLGTGAYVAPILVMQMVIFAPMILAALTSGDVKGSRGQKIWAAVKGSLLSPIVLASIAGLIVCLLEIQLPAAVMEPTIILGGASIPLILMSFGASLPSTNVLASKADRPSVLTATAIKIVGMPAITWLIAKAFGLEGDYLYAAVILAALPAAQNVYNYAATYRKGEIVARDTVFLTTFLALLGMLGIAALFGR | not failed |
| MNLRGILPFAHDTLRKVVRSGDYVVDATCGNGHDTLLLAELVGINGHVLGFDIQQLAIDATNTRLENAGVSSQVELVCASHARIPEYTSKPVRAAIFNLGYLPGGDKEITTTADSTLESIGHLMELLEVGGVIILVIYHGHPAGKQEKDAVMTFCEAIPQQDFHVLSYNFINQKNDAPFVIIIEKRKPRQSLEHHHHHH | not failed |
